# Source: patent publication US20240116985A1, “STAPLED PEPTIDES AND METHODS THEREOF” (priority 2020, published 2024)
# Starred links: 1 amine or outer side, 2 acyl side, 3 side chain; linkers in the order of their positions; H or OH if unused. Positions of bridges follow the written chain, without caps; N, C: chain ends. Non-standard residues stand in square brackets, D forms with d. Primed or numbered codes have the meaning given here. *: point of attachment. B5(4) = 2,2-bis(4-pentenyl)glycine = 2-amino-2-(pent-4-en-1-yl)hept-6-enoic acid (stitching residue), C=CCCCC(CCCC=C)(N[*:1])C(=O)[*:2]; B5(20) = 2-amino-2-(pent-4-en-1-yl)hept-6-enoic acid = bis(4-pentenyl)glycine, stitching residue, C=CCCCC(CCCC=C)(N[*:1])C(=O)[*:2]; Ala(1H-tetrazol-5-yl) = N[C@@H](Cc1nnn[nH]1)C(=O)O; Abu(4,4,4-F3) = N[C@@H](CC(F)(F)F)C(=O)O; Phe(4-NH2) = Nc1ccc(C[C@H](N)C(=O)O)cc1; Ala(2-furyl) = N[C@@H](Cc1ccco1)C(=O)O; Phe(3-Me) = Cc1cccc(C[C@H](N)C(=O)O)c1; Phe(4-Me) = Cc1ccc(C[C@H](N)C(=O)O)cc1; Phe(2-Me) = Cc1ccccc1C[C@H](N)C(=O)O; Abu(4,4-F2) = N[C@@H](CC(F)F)C(=O)O; Bta = N[C@@H](Cc1csc2ccccc12)C(=O)O; αAllylPro = C=CC[C@@]1(C(=O)O)CCCN1; 2Thi = N[C@@H](Cc1cccs1)C(=O)O; 3Thi = N[C@@H](Cc1ccsc1)C(=O)O; S8 = C=CCCCCCC[C@](C)(N)C(=O)O; Dab = NCC[C@H](N)C(=O)O; Dap = NC[C@H](N)C(=O)O; Ms = CS(=O)(=O)*
# Target: full-length beta-Catenin (Uniprot ID P35222) (Homo sapiens (Human)) (UniProt P35222)
# Sequence (P35222 whole entry): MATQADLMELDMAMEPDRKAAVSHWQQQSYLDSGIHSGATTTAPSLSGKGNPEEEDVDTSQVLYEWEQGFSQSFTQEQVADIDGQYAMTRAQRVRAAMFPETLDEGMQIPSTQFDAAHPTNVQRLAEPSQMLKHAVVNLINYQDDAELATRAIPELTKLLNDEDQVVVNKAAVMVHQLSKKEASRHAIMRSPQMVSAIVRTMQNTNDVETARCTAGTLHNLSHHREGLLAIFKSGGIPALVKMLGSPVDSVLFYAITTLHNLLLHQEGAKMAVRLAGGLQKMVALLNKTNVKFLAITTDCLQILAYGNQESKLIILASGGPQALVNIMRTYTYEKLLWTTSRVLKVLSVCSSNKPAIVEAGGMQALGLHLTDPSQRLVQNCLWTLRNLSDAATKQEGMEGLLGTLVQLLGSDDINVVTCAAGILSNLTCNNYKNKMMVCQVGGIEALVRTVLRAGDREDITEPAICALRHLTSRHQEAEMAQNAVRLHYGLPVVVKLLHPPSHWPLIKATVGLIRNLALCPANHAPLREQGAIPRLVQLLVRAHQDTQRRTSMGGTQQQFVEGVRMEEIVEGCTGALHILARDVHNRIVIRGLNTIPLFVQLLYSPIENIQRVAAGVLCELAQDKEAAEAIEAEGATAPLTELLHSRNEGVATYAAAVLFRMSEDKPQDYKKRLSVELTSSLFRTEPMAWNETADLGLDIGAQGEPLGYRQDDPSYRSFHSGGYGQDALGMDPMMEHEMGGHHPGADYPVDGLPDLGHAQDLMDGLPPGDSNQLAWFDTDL
# Assay: FP competition: full-length beta-catenin 10 nM + 5FAM-TCF4(10-53) 10 nM
row,IC50 [nM],Binder
1,65,"Ac-[αAllylPro]D[Abu(4,4,4-F3)][B5(4)]DEAAFQ[S8]F[Bta]H-NH2 (staple 1-4, 4-11) [I-504]"
2,84,"Ac-[αAllylPro]D[Abu(4,4-F2)][B5(4)]DEAAFQ[S8]F[Bta]Q-NH2 (staple 1-4, 4-11) [I-503]"
3,23,"Ac-[αAllylPro]DA[B5(20)]DEAAFN[S8][3Thi][Bta]H-NH2 (staple 1-4, 4-11; also: later-eluting HPLC peak of staple isomers) [I-516]"
4,23,"Ac-[αAllylPro]DI[B5(20)]DEAAFN[S8][3Thi][Bta]Q-NH2 (staple 1-4, 4-11; also: later-eluting HPLC peak of staple isomers) [I-521]"
5,5000,"Ac-[αAllylPro]DA[B5(4)][Dab](Ms)EAAFN[S8]F[Bta]Q-NH2 (staple 1-4, 4-11) [I-532]"
6,5000,"Ac-[αAllylPro]DA[B5(4)][Dap](Ms)EAAFN[S8]F[Bta]Q-NH2 (staple 1-4, 4-11) [I-529]"

# Target: full-length beta-Catenin (Uniprot ID P35222) (Homo sapiens (Human)) (UniProt P35222)
# Assay: fluorescence polarization competition; full-length beta-catenin, competitor 5FAM-TCF4(10-53) probe
row,IC50 [nM],Binder
1,2170,"Ac-[αAllylPro]DA[B5(4)]DEAA[Phe(2-Me)]N[S8]F[Bta]Q-NH2 (staple 1-4, 4-11) [I-456]"
2,183,"Ac-[αAllylPro]DA[B5(4)]DEAA[Phe(4-Me)]N[S8]F[Bta]Q-NH2 (staple 1-4, 4-11) [I-459]"
3,125,"Ac-[αAllylPro]DA[B5(4)]DEAA[Phe(4-NH2)]N[S8]F[Bta]Q-NH2 (staple 1-4, 4-11) [I-461]"
4,4960,"Ac-[αAllylPro]DA[B5(4)][Ala(1H-tetrazol-5-yl)]DAAFN[S8]F[Bta]Q-NH2 (staple 1-4, 4-11) [I-445]"
5,1440,"Ac-[αAllylPro]DA[B5(4)]DEAA[Phe(2-Me)]N[S8]F[Bta]Q-NH2 (staple 1-4, 4-11) [I-457]"
6,92,"Ac-[αAllylPro]DA[B5(4)]DEAA[3Thi]N[S8]F[Bta]Q-NH2 (staple 1-4, 4-11) [I-448]"
7,196,"Ac-[αAllylPro]DA[B5(4)]DEAA[Ala(2-furyl)]N[S8]F[Bta]Q-NH2 (staple 1-4, 4-11) [I-460]"
8,102,"Ac-[αAllylPro]DA[B5(4)]DEAA[Phe(3-Me)]N[S8]F[Bta]Q-NH2 (staple 1-4, 4-11) [I-458]"
9,53,"Ac-[αAllylPro]DA[B5(4)]DEAA[3Thi]N[S8]F[Bta]Q-NH2 (staple 1-4, 4-11) [I-449]"
10,130,"Ac-[αAllylPro]DA[B5(4)]DEAA[2Thi]N[S8]F[Bta]Q-NH2 (staple 1-4, 4-11; also: staple isomer composition, earlier-eluting HPLC peak) [I-446]"
11,80,"Ac-[αAllylPro]DA[B5(4)]D[Ala(1H-tetrazol-5-yl)]AAFN[S8]F[Bta]Q-NH2 (staple 1-4, 4-11) [I-444]"
12,74,"Ac-[αAllylPro]DA[B5(4)]DEAA[2Thi]N[S8]F[Bta]Q-NH2 (staple 1-4, 4-11) [I-447]"

# Target: full-length beta-Catenin (Uniprot ID P35222) (Homo sapiens (Human)) (UniProt P35222)
# Assay: fluorescence polarization competition; 10 nM full-length beta-catenin + 10 nM 5FAM-TCF4(10-53) probe
row,EC50 [µM],Binder
1,0.065,"Ac-[αAllylPro]D[Abu(4,4,4-F3)][B5(4)]DEAAFQ[S8]F[Bta]H-NH2 (staple 1-4, 4-11) [I-504]"
2,5,"Ac-[αAllylPro]DA[B5(4)][Dab](Ms)EAAFN[S8]F[Bta]Q-NH2 (staple 1-4, 4-11) [I-532]"
3,5,"Ac-[αAllylPro]DA[B5(4)][Dap](Ms)EAAFN[S8]F[Bta]Q-NH2 (staple 1-4, 4-11) [I-529]"

# Target: full-length beta-Catenin (Uniprot ID P35222) (Homo sapiens (Human)) (UniProt P35222)
# Assay: fluorescence polarization competition; displacement of 5FAM-TCF4(10-53) from full-length beta-catenin
row,EC50 [nM],Binder
1,84,"Ac-[αAllylPro]D[Abu(4,4-F2)][B5(4)]DEAAFQ[S8]F[Bta]Q-NH2 (staple 1-4, 4-11) [I-503]"

# Target: full-length beta-Catenin (Uniprot ID P35222) (Homo sapiens (Human)) (UniProt P35222)
# Assay: fluorescence polarization competition: full-length beta-catenin + 5FAM-TCF4(10-53) probe, peptide titrated
row,EC50 [nM],Binder
1,2170,"Ac-[αAllylPro]DA[B5(4)]DEAA[Phe(2-Me)]N[S8]F[Bta]Q-NH2 (staple 1-4, 4-11) [I-456]"
2,183,"Ac-[αAllylPro]DA[B5(4)]DEAA[Phe(4-Me)]N[S8]F[Bta]Q-NH2 (staple 1-4, 4-11) [I-459]"
3,125,"Ac-[αAllylPro]DA[B5(4)]DEAA[Phe(4-NH2)]N[S8]F[Bta]Q-NH2 (staple 1-4, 4-11) [I-461]"
4,4960,"Ac-[αAllylPro]DA[B5(4)][Ala(1H-tetrazol-5-yl)]DAAFN[S8]F[Bta]Q-NH2 (staple 1-4, 4-11) [I-445]"
5,1440,"Ac-[αAllylPro]DA[B5(4)]DEAA[Phe(2-Me)]N[S8]F[Bta]Q-NH2 (staple 1-4, 4-11) [I-457]"
6,92,"Ac-[αAllylPro]DA[B5(4)]DEAA[3Thi]N[S8]F[Bta]Q-NH2 (staple 1-4, 4-11) [I-448]"
7,196,"Ac-[αAllylPro]DA[B5(4)]DEAA[Ala(2-furyl)]N[S8]F[Bta]Q-NH2 (staple 1-4, 4-11) [I-460]"
8,102,"Ac-[αAllylPro]DA[B5(4)]DEAA[Phe(3-Me)]N[S8]F[Bta]Q-NH2 (staple 1-4, 4-11) [I-458]"
9,53,"Ac-[αAllylPro]DA[B5(4)]DEAA[3Thi]N[S8]F[Bta]Q-NH2 (staple 1-4, 4-11) [I-449]"
10,130,"Ac-[αAllylPro]DA[B5(4)]DEAA[2Thi]N[S8]F[Bta]Q-NH2 (staple 1-4, 4-11; also: staple isomer composition, earlier-eluting HPLC peak) [I-446]"
11,80,"Ac-[αAllylPro]DA[B5(4)]D[Ala(1H-tetrazol-5-yl)]AAFN[S8]F[Bta]Q-NH2 (staple 1-4, 4-11) [I-444]"
12,74,"Ac-[αAllylPro]DA[B5(4)]DEAA[2Thi]N[S8]F[Bta]Q-NH2 (staple 1-4, 4-11) [I-447]"
